Experimental findings from publication PMC9453709 are described below.

The assay concerns the target SARS-CoV-2 Omicron BA.1 S glycoprotein ectodomain with S6P and GSAS mutations (SARS-CoV-2). The assay is described as follows: cryo-EM structure.

Regarding “SARS-CoV-2 Omicron BA.1 S glycoprotein ectodomain with S6P and GSAS mutations (domain or fragment)”, the stoichiometry N came out at 3.
